Like-named read-outs stand apart in the source and are kept apart here. Bridge positions count the residues as written; N and C are the ends. Square brackets hold non-standard residues; d marks the D form. Peptide text beside a SMILES is read from it. * marks the point of attachment. ξ: configuration not given here. X1 = CN(C)c1ccc2c(c1)Oc1cc(N(C)C)ccc1C21OC(=O)c2ccc(C(=O)*)cc21; MethylRed = CN(C)c1ccc(/N=N/c2ccccc2C(=O)*)cc1; NBD = O=[N+]([O-])c1ccc(*)c2nonc12; dDab = NCC[C@@H](N)C(=O)O; Dab = NCC[C@H](N)C(=O)O; AEEA = NCCOCCOCC(=O)O; ξDab = NCCC(N)C(=O)O; ξK = NCCCCC(N)C(=O)O; ξV = CC(C)C(N)C(=O)O; ξP = O=C(O)C1CCCN1; ξA = CC(N)C(=O)O
How the values were obtained:
human erythrocytes = test: Haemolysis assay; conditions: up to 100 μM; 0.2% Triton-X = 100%
Protocol: Positive control was 0.2% Triton-X and values corrected to represent 100% haemolysis for Triton-X.
Erythrocytes were isolated from freshly drawn, anticoagulated human blood and resuspended to 20 vol % in PBS (pH 7.4). In a 96-well microtiter plate, 100 μl of erythrocyte suspension was added to 100 μl of NLLP solution in PBS (prepared by 1:2 serial dilutions) or 100 μl of PBS in the case of negative controls. One-hundred percent haemolysis wells contained 100 μl of red cell suspension with 100 μl of 0.2 vol % Triton X-100. The plate was incubated for 1 h at 37° C., and then each well was diluted with 150 μl of PBS. The plate was then centrifuged at 1,200 g for 15 min, 100 μl of the supernatant from each well was transferred to a fresh microtiter plate, and A350 was measured. Percentage of haemolysis was determined as (A−A0)/(Atotal−A0)×100, where A is the absorbance of the test well, A0 the absorbance of the negative controls, and Atotal the absorbance of 100% haemolysis wells, all at 350 nm on a Biotek plate reader.

[1] = Stability in saline or BALF from patients with Acute Lung Injury (MALDI-TOF / FTMS); conditions: incubated for 30 minutes
Protocol: FIG. 16: NBD-UBIdend is stable in ALI BALF. […] NBD-PMX is stable in ALI BALF.
Secondly we assessed stability of the probes in broncholalveolar lavage fluid (BALF) from patients with Acute Lung Injury (ALI) by Fourier Transform Mass Spectrometry (FTMS) and Matrix-Assisted Laser Desorption/Ionization Time-of-Flight Mass Spectrometry (MALDI-TOF MS) analysis. NBD-UBINle, NBD-UBIdend and NBD-PMX were incubated for 30 minutes with BALF (FIG. 16).
In vitro labelling was assessed on benchtop confocal in the presence of compound with bacteria and labelling was compared to NBD-UBINle which served as a reference control for bacterial labelling. […] For the ex vivo and in vivo ovine lung experiments each compound was assessed in a control lung segment (instilled with 2 ml PBS) or a bacterial segment (instilled with 2 ml of 2 optical density of bacteria). Following bacterial instillation, the compound was administered to the segment of interest and this was imaged by probe based confocal laser endomicroscopy (FCFM).
Probe was added to saline or pooled BALF from patients with ALI incubated for 30 minutes. A ZipTip (C-18, 0.2 μL) with 5 μL MeCN (with 0.1% TFA as an additive) followed by 20 μL of H2O was washed. The ZipTip was loaded with the sample, washed and eluted into 5 μL of 80% aq. MeCN (with 0.1% TFA as an additive). The sample was analysed by MALDI-TOF (PerSeptive Biosystems Voyager DETMSTR MALDI-TOF mass spectrometer (Applied Biosystems, Foster City, Calif.)).

[2] = Rodent single dose intratracheal toxicity assessment; assay type: in vivo, Mice; parameters: Creatinine / Bilirubin / Albumin: unit not given here
[3] = tested on: Methicillin sensitive Staphylococcus aureus (MSSA); test: Elastase dependant bacterial labelling in co-culture of bacteria and isolated human neutrophils (confocal); assay type: cell-based
Description: FIG. 2A: Elastase dependant bacterial labelling scheme.
FIG. 2B: Elastase dependant bacterial labelling in vitro.
A first example of elastase sensitive probes (shown schematically in FIG. 2A) comprises methyl red (acting as a dark quencher) connected via the peptide sequence AAPV (acting as the linker) to 7-nitrobenz-2-oxa-1,3-diazole (NBD) and the ubiquicidin fragment UBI29-41 (together acting as the probe element). Accordingly, the NBD fluorescence is quenched by the methyl red and no fluorescent signal will be observed (i.e. the methyl red and NBD are acting as a FRET pair) and therefore, whether or not the probe is bound to any bacteria that may be present in the target area via UBI29-41, no signal is observed using confocal microscopy.
When the probe is in the presence of human neutrophil elastase (HNE), such as in inflamed tissue, HNE cleaves the peptide sequence of the linker, to thereby free the probe element from the methyl red quencher. Accordingly, the NBD fluorophore is no longer quenched and produces a fluorescent signal. In addition, due to the environmental sensitivity of the NBD, the signal produced is greatly amplified if the NBD is in a hydrophobic environment, such as within a cell membrane.

elastase = elastase (Homo sapiens, UniProt P08246); conditions: ex 525, Em 580
[4] = tested on: Pseudomonas aueriginosa (PA)
Description: (§1) FIG. 3A: Elastase dependant bacterial labelling scheme. The fluorophore on the bacterial binding component is quenched by a different fluorophore of a longer wavelength meaning that no fluorescence is seen upon binding to bacteria. Cleavage of the elastase specific sequence AAPV liberates the bacterial binding component (PV-NBD-UBI) from the quencher (TAMRA). TAMRA reports the presence of activated neutrophils by endocytic uptake.
(§2) FIG. 3B: Elastase dependant bacterial labelling in vitro.
In a second example, the probe comprises carboxytetramethylrhodamine (TAMRA, acting as a fluorescent quencher) connected to NBD and polymyxin (acting as the probe element) via the peptide sequence AAPV (acting as the linker). Accordingly, the NBD fluorescence is quenched by the TAMRA to give rise to a fluorescent signal from TAMRA (i.e. the TAMRA is accepting the energy absorbed by the NBD and is itself fluorescing, TAMRA and NBD are acting as a FRET pair). Accordingly, whether or not the polymyxin has bound to any bacteria that may be present, only a signal from the TAMRA is observed.

activated neutrophils = conditions: TAMRA signal (red)
Description: as §1, §2

elastase, sequence (P08246 30-247 limits assumed): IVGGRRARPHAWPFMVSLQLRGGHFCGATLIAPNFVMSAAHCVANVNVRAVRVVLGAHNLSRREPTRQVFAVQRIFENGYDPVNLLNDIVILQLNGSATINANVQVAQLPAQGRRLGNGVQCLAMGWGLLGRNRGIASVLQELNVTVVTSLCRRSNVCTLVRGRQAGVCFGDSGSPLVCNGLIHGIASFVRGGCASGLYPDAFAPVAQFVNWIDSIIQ

## CCCC[C@H](NC(=O)[C@H](CCCNC(=N)N)NC(=O)[C@H](CCCNC(=N)N)NC(=O)[C@H](CCCCN)NC(=O)[C@H](C)NC(=O)[C@H](CCCNC(=N)N)NC(=O)CNC(=O)[C@@H](NC(=O)COCCOCCNc1ccc([N+](=O)[O-])c2nonc12)[C@@H](C)O)C(=O)N[C@@H](CCC(N)=O)C(=O)N[C@@H](Cc1ccc(O)cc1)C(=O)N[C@@H](CC(N)=O)C(=O)N[C@@H](CCCNC(=N)N)C(=O)N[C@@H](CCCNC(=N)N)C(=O)NCCOCCOCC(=O)NCCCOCC(COCCCNC(=O)COCCOCCNC(=O)[C@H](CCCNC(=N)N)NC(=O)[C@H](CCCNC(=N)N)NC(=O)[C@H](CC(N)=O)NC(=O)[C@H](Cc1ccc(O)cc1)NC(=O)[C@H](CCC(N)=O)NC(=O)[C@H](CCCC)NC(=O)[C@H](CCCNC(=N)N)NC(=O)[C@H](CCCNC(=N)N)NC(=O)[C@H](CCCCN)NC(=O)[C@H](C)NC(=O)[C@H](CCCNC(=N)N)NC(=O)CNC(=O)[C@@H](NC(=O)COCCOCCNc1ccc([N+](=O)[O-])c2nonc12)[C@@H](C)O)(COCCCNC(=O)COCCOCCNC(=O)[C@H](CCCNC(=N)N)NC(=O)[C@H](CCCNC(=N)N)NC(=O)[C@H](CC(N)=O)NC(=O)[C@H](Cc1ccc(O)cc1)NC(=O)[C@H](CCC(N)=O)NC(=O)[C@H](CCCC)NC(=O)[C@H](CCCNC(=N)N)NC(=O)[C@H](CCCNC(=N)N)NC(=O)[C@H](CCCCN)NC(=O)[C@H](C)NC(=O)[C@H](CCCNC(=N)N)NC(=O)CNC(=O)[C@@H](NC(=O)COCCOCCNc1ccc([N+](=O)[O-])c2nonc12)[C@@H](C)O)NC(N)=O (some centres unmarked) [NBD-UBIdend]
Human erythrocytes
  red cell haemolysis: no red cell haemolysis
[1]
  stability in ALI BALF: demonstrate stability
  stability in saline: readily identified in both saline and BALF incubated samples
[2]; 48 hours
  ALP: 222.3 ± 80.3 u/l
  ALT: 24.0 ± 1.2 u/l
  Albumin: 22.3 ± 1.8
  BALF: 477.1 ± 150.6 Cells/ul
  Bilirubin: 2 ± 0
  Creatinine: 8.3 ± 0.7
  Cytospin (% of Neutrophils): 3.6%
  Cytospin (% of Red Blood Cells): 0%
  PenH value: 0.5 ± 0.06
[2]; 48 hours, single intratracheal 100 μg/25 g mouse
  Cytospin (% of Mononuclear cells): 96.4%
[2]; 14 days
  ALP: 227.0 ± 27.1 u/l
  ALT: 28.3 ± 1.9 u/l
  Albumin: 25.0 ± 1.2
  BALF: 342.7 ± 6.5 Cells/ul
  Bilirubin: 2 ± 0
  Creatinine: 9.0 ± 1.5
  Cytospin (% of Neutrophils): 0%
  Cytospin (% of Red Blood Cells): 0%
  PenH value: 0.5 ± 0.04
[2]; 14 days, single intratracheal 100 μg/25 g mouse
  Cytospin (% of Mononuclear cells): 100%
[2]; single instillation, 48 hours and 14 days, compared to PBS control
  organ toxicity (histology): no organ toxicity
[2]; single intratracheal 100 μg/25 g mouse, 48 hours and 14 days
  toxicity: no toxicity

## CSCCC(NC(=O)C(CCCNC(=N)N)NC(=O)C(CCCNC(=N)N)NC(=O)C(CCCCN)NC(=O)C(C)NC(=O)C(CCCNC(=N)N)NC(=O)CNC(=O)C(NC(=O)COCCOCCNC(=O)C(CCCCNc1ccc([N+](=O)[O-])c2nonc12)NC(=O)C(NC(=O)C1CCCN1C(=O)C(C)NC(=O)C(C)NC(=O)c1ccccc1/N=N/c1ccc(N(C)C)cc1)C(C)C)C(C)O)C(=O)NC(CCC(N)=O)C(=O)NC(Cc1ccc(O)cc1)C(=O)NC(CC(N)=O)C(=O)NC(CCCNC(=N)N)C(=O)NC(CCCNC(=N)N)C(N)=O (centres unmarked) [Example 1] (MethylRed-AAPVK(NBD)[AEEA]TGRAKRRMQYNRR-NH2; configuration not given here)
[3]; confocal, neutrophil derived HNE present
  bacterial labelling in co-culture of bacteria and neutrophils: ability of the probe to be cleaved by neutrophil derived HNE and to label bacteria
[3]; elastase inhibitor sivelestat added to the medium
  bacterial labelling with elastase inhibitor: no labelling was observed

## CC(C)C[C@@H]1NC(=O)[C@@H](Cc2ccccc2)NC(=O)[C@@H](CCN)NC(=O)C(NC(=O)[C@H](CCN)NC(=O)[C@@H](NC(=O)COCCOCCNC(=O)C(CCCCNc2ccc([N+](=O)[O-])c3nonc23)NC(=O)C(NC(=O)C2CCCN2C(=O)C(C)NC(=O)C(C)NC(=O)c2ccc3c(c2)C2(OC3=O)c3ccc(N(C)C)cc3Oc3cc(N(C)C)ccc32)C(C)C)[C@@H](C)O)CCNC(=O)[C@@H]([C@H](C)O)NC(=O)[C@H](CCN)NC(=O)[C@H](CCN)NC1=O (some centres unmarked) [TAMRA-AAPV-NBD-PMX] (X1-[ξA][ξA][ξP][ξV][ξK](NBD)[AEEA]T[Dab][ξDab][dDab][dF]L[Dab][Dab][dT]; lactam 9-C)
elastase; elastase inhibitor
  fluorescence of TAMRA following cleavage, with elastase inhibitor: inhibited with an elastase inhibitor
elastase; with elastase
  fluorescence of TAMRA following cleavage: increase in fluorescence of TAMRA-AA (cleaved compound) compared to TAMRA-AAPV-NBD-PMX in an elastase dependent manner
[4]; activated neutrophils, NBD signal (green)
  bacterial labelling: bacterial labelling (shown in green) in an elastase dependent manner
[4]; unactivated neutrophils
  bacterial labelling: no labelling in the presence of unactivated neutrophils
Activated neutrophils
  labelling of activated neutrophils: labelling of activated neutrophils (shown in red) in an elastase independent manner
